Patent US20250304650A1

Target: feline FcRn (FCN-F82W3, Acrobiosystems) (feline)
Assay: SPR Carterra, IgG coupled, pH 6.0

| Kd | koff | kon | Binder |
| --- | --- | --- | --- |
| 3.1 nM | 0.00504 s⁻¹ | 1.61e+06 M⁻¹ s⁻¹ | anti-NGF feline IgG1a, Fc variant S434Y, S254K (antibody, part only; not given: anti-NGF variable domains, light chain, not shown: another chain or arm of the molecule; small tags and cut ends) Fc: PPEMLGGPSIFIFPPKPKDTLSIKRTPEVTCLVVDLGPDDSDVQITWFVDNTQVYTAKTSPREEQFNSTYRVVSVLPILHQDWLKGKEFKCKVNSKSLPSPIERTISKAKGQPHEPQVYVLPPAQEELSRNKVSVTCLIKSFHPPDIAVEWEITGQPEPENNYRTTPPQLDSDGTYFVYSKLSVDRSHWQRGNTYTCSVSHEALHYHHTQKSLTQSPGK |
| 3.4 nM | 0.00534 s⁻¹ | 1.57e+06 M⁻¹ s⁻¹ | anti-NGF feline IgG1a, Fc variant S434Y, E293D (antibody, part only; not given: anti-NGF variable domains, light chain, not shown: another chain or arm of the molecule; small tags and cut ends) Fc: PPEMLGGPSIFIFPPKPKDTLSISRTPEVTCLVVDLGPDDSDVQITWFVDNTQVYTAKTSPRDEQFNSTYRVVSVLPILHQDWLKGKEFKCKVNSKSLPSPIERTISKAKGQPHEPQVYVLPPAQEELSRNKVSVTCLIKSFHPPDIAVEWEITGQPEPENNYRTTPPQLDSDGTYFVYSKLSVDRSHWQRGNTYTCSVSHEALHYHHTQKSLTQSPGK |
| 3.3 nM | 0.00498 s⁻¹ | 1.51e+06 M⁻¹ s⁻¹ | anti-NGF feline IgG1a, Fc variant S434Y, L262E (antibody, part only; not given: Anti-NGF variable domains, not shown: another chain or arm of the molecule; small tags and cut ends) Fc: PPEMLGGPSIFIFPPKPKDTLSISRTPEVTCEVVDLGPDDSDVQITWFVDNTQVYTAKTSPREEQFNSTYRVVSVLPILHQDWLKGKEFKCKVNSKSLPSPIERTISKAKGQPHEPQVYVLPPAQEELSRNKVSVTCLIKSFHPPDIAVEWEITGQPEPENNYRTTPPQLDSDGTYFVYSKLSVDRSHWQRGNTYTCSVSHEALHYHHTQKSLTQSPGK |
| 4.2 nM | 0.00718 s⁻¹ | 1.73e+06 M⁻¹ s⁻¹ | anti-NGF feline IgG1a, Fc variant S434F (antibody, part only; not given: anti-NGF variable domains, light chain, not shown: another chain or arm of the molecule; small tags and cut ends) Fc: PPEMLGGPSIFIFPPKPKDTLSISRTPEVTCLVVDLGPDDSDVQITWFVDNTQVYTAKTSPREEQFNSTYRVVSVLPILHQDWLKGKEFKCKVNSKSLPSPIERTISKAKGQPHEPQVYVLPPAQEELSRNKVSVTCLIKSFHPPDIAVEWEITGQPEPENNYRTTPPQLDSDGTYFVYSKLSVDRSHWQRGNTYTCSVSHEALHFHHTQKSLTQSPGK |
| 3.6 nM | 0.00559 s⁻¹ | 1.53e+06 M⁻¹ s⁻¹ | anti-NGF feline IgG1a, Fc variant S434Y, T289K (antibody, part only; not given: Anti-NGF variable domains, not shown: another chain or arm of the molecule; small tags and cut ends) Fc: PPEMLGGPSIFIFPPKPKDTLSISRTPEVTCLVVDLGPDDSDVQITWFVDNTQVYTAKKSPREEQFNSTYRVVSVLPILHQDWLKGKEFKCKVNSKSLPSPIERTISKAKGQPHEPQVYVLPPAQEELSRNKVSVTCLIKSFHPPDIAVEWEITGQPEPENNYRTTPPQLDSDGTYFVYSKLSVDRSHWQRGNTYTCSVSHEALHYHHTQKSLTQSPGK |
| 3.3 nM | 0.00583 s⁻¹ | 1.77e+06 M⁻¹ s⁻¹ | anti-NGF feline IgG1a, Fc variant S434F, E380D (antibody, part only; not given: anti-NGF variable domains, light chain, not shown: another chain or arm of the molecule; small tags and cut ends) Fc: PPEMLGGPSIFIFPPKPKDTLSISRTPEVTCLVVDLGPDDSDVQITWFVDNTQVYTAKTSPREEQFNSTYRVVSVLPILHQDWLKGKEFKCKVNSKSLPSPIERTISKAKGQPHEPQVYVLPPAQEELSRNKVSVTCLIKSFHPPDIAVDWEITGQPEPENNYRTTPPQLDSDGTYFVYSKLSVDRSHWQRGNTYTCSVSHEALHFHHTQKSLTQSPGK |
| 2.9 nM | 0.00371 s⁻¹ | 1.28e+06 M⁻¹ s⁻¹ | anti-NGF feline IgG1a, Fc variant S434Y, T286D (antibody, part only; not given: anti-NGF variable domains, not shown: another chain or arm of the molecule; small tags and cut ends) Fc: PPEMLGGPSIFIFPPKPKDTLSISRTPEVTCLVVDLGPDDSDVQITWFVDNTQVYDAKTSPREEQFNSTYRVVSVLPILHQDWLKGKEFKCKVNSKSLPSPIERTISKAKGQPHEPQVYVLPPAQEELSRNKVSVTCLIKSFHPPDIAVEWEITGQPEPENNYRTTPPQLDSDGTYFVYSKLSVDRSHWQRGNTYTCSVSHEALHYHHTQKSLTQSPGK |
| 9 nM | 0.00873 s⁻¹ | 974000 M⁻¹ s⁻¹ | anti-NGF feline IgG1a, Fc variant S428L, S252R (antibody, part only; not given: anti-NGF variable domains, not shown: another chain or arm of the molecule; small tags and cut ends) Fc: PPEMLGGPSIFIFPPKPKDTLRISRTPEVTCLVVDLGPDDSDVQITWFVDNTQVYTAKTSPREEQFNSTYRVVSVLPILHQDWLKGKEFKCKVNSKSLPSPIERTISKAKGQPHEPQVYVLPPAQEELSRNKVSVTCLIKSFHPPDIAVEWEITGQPEPENNYRTTPPQLDSDGTYFVYSKLSVDRSHWQRGNTYTCSVLHEALHSHHTQKSLTQSPGK |
| 4.1 nM | 0.00501 s⁻¹ | 1.22e+06 M⁻¹ s⁻¹ | anti-NGF feline IgG1a, Fc variant S434Y, E293K (antibody, part only; not given: anti-NGF variable domains, light chain, not shown: another chain or arm of the molecule; small tags and cut ends) Fc: PPEMLGGPSIFIFPPKPKDTLSISRTPEVTCLVVDLGPDDSDVQITWFVDNTQVYTAKTSPRKEQFNSTYRVVSVLPILHQDWLKGKEFKCKVNSKSLPSPIERTISKAKGQPHEPQVYVLPPAQEELSRNKVSVTCLIKSFHPPDIAVEWEITGQPEPENNYRTTPPQLDSDGTYFVYSKLSVDRSHWQRGNTYTCSVSHEALHYHHTQKSLTQSPGK |
| 3.6 nM | 0.00345 s⁻¹ | 965000 M⁻¹ s⁻¹ | anti-NGF feline IgG1a, Fc variant S434Y, T286E (antibody, part only; not given: anti-NGF variable domains, light chain, not shown: another chain or arm of the molecule; small tags and cut ends) Fc: PPEMLGGPSIFIFPPKPKDTLSISRTPEVTCLVVDLGPDDSDVQITWFVDNTQVYEAKTSPREEQFNSTYRVVSVLPILHQDWLKGKEFKCKVNSKSLPSPIERTISKAKGQPHEPQVYVLPPAQEELSRNKVSVTCLIKSFHPPDIAVEWEITGQPEPENNYRTTPPQLDSDGTYFVYSKLSVDRSHWQRGNTYTCSVSHEALHYHHTQKSLTQSPGK |
| 16.7 nM | 0.0241 s⁻¹ | 1.45e+06 M⁻¹ s⁻¹ | anti-NGF feline IgG1a, Fc variant S428L (antibody, part only; not given: Anti-NGF variable domains, not shown: another chain or arm of the molecule; small tags and cut ends) Fc: PPEMLGGPSIFIFPPKPKDTLSISRTPEVTCLVVDLGPDDSDVQITWFVDNTQVYTAKTSPREEQFNSTYRVVSVLPILHQDWLKGKEFKCKVNSKSLPSPIERTISKAKGQPHEPQVYVLPPAQEELSRNKVSVTCLIKSFHPPDIAVEWEITGQPEPENNYRTTPPQLDSDGTYFVYSKLSVDRSHWQRGNTYTCSVLHEALHSHHTQKSLTQSPGK |
| 1.8 nM | 0.004 s⁻¹ | 2.21e+06 M⁻¹ s⁻¹ | anti-NGF feline IgG1a, Fc variant S434Y, L309V (antibody, part only; not given: anti-NGF variable domains, light chain, not shown: another chain or arm of the molecule; small tags and cut ends) Fc: PPEMLGGPSIFIFPPKPKDTLSISRTPEVTCLVVDLGPDDSDVQITWFVDNTQVYTAKTSPREEQFNSTYRVVSVLPIVHQDWLKGKEFKCKVNSKSLPSPIERTISKAKGQPHEPQVYVLPPAQEELSRNKVSVTCLIKSFHPPDIAVEWEITGQPEPENNYRTTPPQLDSDGTYFVYSKLSVDRSHWQRGNTYTCSVSHEALHYHHTQKSLTQSPGK |
| 4 nM | 0.00549 s⁻¹ | 1.38e+06 M⁻¹ s⁻¹ | anti-NGF feline IgG1a, Fc variant S434Y, K326D (antibody, part only; not given: anti-NGF variable domains, light chain, not shown: another chain or arm of the molecule; small tags and cut ends) Fc: PPEMLGGPSIFIFPPKPKDTLSISRTPEVTCLVVDLGPDDSDVQITWFVDNTQVYTAKTSPREEQFNSTYRVVSVLPILHQDWLKGKEFKCKVNSDSLPSPIERTISKAKGQPHEPQVYVLPPAQEELSRNKVSVTCLIKSFHPPDIAVEWEITGQPEPENNYRTTPPQLDSDGTYFVYSKLSVDRSHWQRGNTYTCSVSHEALHYHHTQKSLTQSPGK |
| 4.1 nM | 0.00458 s⁻¹ | 1.13e+06 M⁻¹ s⁻¹ | anti-NGF feline IgG1a, Fc variant S434Y, L309E (antibody, part only; not given: Anti-NGF variable domains, not shown: another chain or arm of the molecule; small tags and cut ends) Fc: PPEMLGGPSIFIFPPKPKDTLSISRTPEVTCLVVDLGPDDSDVQITWFVDNTQVYTAKTSPREEQFNSTYRVVSVLPIEHQDWLKGKEFKCKVNSKSLPSPIERTISKAKGQPHEPQVYVLPPAQEELSRNKVSVTCLIKSFHPPDIAVEWEITGQPEPENNYRTTPPQLDSDGTYFVYSKLSVDRSHWQRGNTYTCSVSHEALHYHHTQKSLTQSPGK |
| 3.4 nM | 0.00667 s⁻¹ | 1.98e+06 M⁻¹ s⁻¹ | anti-NGF feline IgG1a, Fc variant S434Y, Q347L (antibody, part only; not given: Anti-NGF variable domains, not shown: another chain or arm of the molecule; small tags and cut ends) Fc: PPEMLGGPSIFIFPPKPKDTLSISRTPEVTCLVVDLGPDDSDVQITWFVDNTQVYTAKTSPREEQFNSTYRVVSVLPILHQDWLKGKEFKCKVNSKSLPSPIERTISKAKGQPHEPLVYVLPPAQEELSRNKVSVTCLIKSFHPPDIAVEWEITGQPEPENNYRTTPPQLDSDGTYFVYSKLSVDRSHWQRGNTYTCSVSHEALHYHHTQKSLTQSPGK |
